Data from patent US20200299396A1 (BALIOPHARMA, published 2020).

T1: human TNFR1 on the cellular surface of HeLa, HT1080 and Kym-1 cells (human, UniProt P19438 30-455)
T1 sequence: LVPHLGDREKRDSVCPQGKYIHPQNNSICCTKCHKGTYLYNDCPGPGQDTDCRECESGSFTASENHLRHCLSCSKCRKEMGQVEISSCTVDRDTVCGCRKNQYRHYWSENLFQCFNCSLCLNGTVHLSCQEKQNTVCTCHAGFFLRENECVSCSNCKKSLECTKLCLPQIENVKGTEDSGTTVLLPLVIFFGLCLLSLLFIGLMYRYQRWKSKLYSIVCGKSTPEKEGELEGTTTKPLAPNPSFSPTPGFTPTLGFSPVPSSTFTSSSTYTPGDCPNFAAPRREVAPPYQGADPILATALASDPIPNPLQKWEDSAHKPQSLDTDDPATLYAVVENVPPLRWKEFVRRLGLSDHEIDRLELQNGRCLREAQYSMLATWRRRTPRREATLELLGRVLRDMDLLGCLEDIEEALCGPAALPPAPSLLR

T2: Recombinant human TNFR1-Fc fusion protein (human, UniProt P19438 30-211, limits assumed)
T2 construct: not shown: Fc part
T2 sequence: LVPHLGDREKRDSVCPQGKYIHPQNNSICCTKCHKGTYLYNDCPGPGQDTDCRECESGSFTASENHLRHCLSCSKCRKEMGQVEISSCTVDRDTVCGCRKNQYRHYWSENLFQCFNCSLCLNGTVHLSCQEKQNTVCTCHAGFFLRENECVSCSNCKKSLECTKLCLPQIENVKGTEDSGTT

T3: human Fcγ receptor IIb (human, UniProt P31994 46-217, limits assumed)
T3 construct: also called FcγRIIb
T3 sequence (looked up): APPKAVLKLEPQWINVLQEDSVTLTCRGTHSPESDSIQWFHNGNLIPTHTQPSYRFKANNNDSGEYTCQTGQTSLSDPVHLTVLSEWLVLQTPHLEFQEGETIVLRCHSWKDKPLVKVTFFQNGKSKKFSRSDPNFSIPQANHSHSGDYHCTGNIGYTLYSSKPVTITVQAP

B1: Fab 13.7 (Fab, V domains shown)
VH: HVQLVQSGAEVKKPGSSVKVSCKASGYTFTDFYINWVRQAPGQGLEWIGEIVPSQGEAKYNDKFKARVTITADKSTSTAYMELSSLRSEDTAVYYCARWDFLDYWGQGTTVTVSS
VL: DVQMTQSPSSLSASVGDRVTITCRSSQSLLHSNGNTYLHWYQQKPGKAPKLLIYTVSNRFSGVPSRFSGSGSGTDFTLTISSLQPEDFATYYCSQSTHVPYTFGGGTKVEIKR
B2: Atrosimab (antibody)
heavy: HVQLVQSGAEVKKPGSSVKVSCKASGYTFTDFYINWVRQAPGQGLEWIGEIVPSQGEAKYNDKFKARVTITADKSTSTAYMELSSLRSEDTAVYYCARWDFLDYWGQGTTVTVSSGTGGGSGPSVFLFPPKPKDTLMISRTPEVTCVVVDVSHEDPEVKFNWYVDGVEVHNAKTKPREEQYNSTYRVVSVLTVLHQDWLNGKEYKCKVSNKGLPSSIEKTISKAKGQPREPSVFIFPPSDEQLKSGTASVVCLVNNFYPRDIAVEWEVDNALQSGNSQESVTEQDSKDSTYSLSSTLTLSKADYEKHKVYSCSVMHEALHNHYTQKSFNRGEC
light: DVQMTQSPSSLSASVGDRVTITCRSSQSLLHSNGNTYLHWYQQKPGKAPKLLIYTVSNRFSGVPSRFSGSGSGTDFTLTISSLQPEDFATYYCSQSTHVPYTFGGGTKVEIKGTGGGSGPSVFLFPPKPKDTLMISRTPEVTCVVVDVSHEDPEVKFNWYVDGVEVHNAKTKPREEQYNSTYRVVSVLTVLHQDWLNGKEYKCKVSNKGLPSSIEKTISKAKGQPREPSVFPLAPSSKSTSGGTAALGCLVKDYFPSDIAVEWESGALTSGVHTFPAVLQSSGLYSLSSVVTVPSSSLGTQTYSCSVMHEALHNHYTQKSVEPKSC
notes: The Fc is modified to reduce effector functions; Produced in CHO cells; also called Fv13.7-Fc1k; VHkC/VL1C heterodimer

Columns and labels:
[1] = target: T1, human TNFR1 on the cellular surface of …; test: cell-based or functional assay
[2] = target: T1, human TNFR1 on the cellular surface of …; test: cell-based or functional assay; remark: listed apart in the source
[3] = target: T2, Recombinant human TNFR1-Fc fusion …; test: ELISA under equilibrium conditions, TNFR1-Fc coated
Description: (§1) Microtiter plates were coated with 100 μl of TNFR1-Fc fusion protein (1 μg/ml in PBS) and incubated at 4° C. overnight. The residual binding sites were blocked with 2% MPBS (skim milk in PBS, 200 μl per well) at room temperature for 2 hours and subsequently washed twice with PBS. 100 μl of the samples diluted in 2% MPBS were incubated at room temperature for 1 hour prior to the last incubation step with 100 μl of the HRP conjugated detection antibodies in 2% MPBS. Bound protein was detected with 100 μl TMB substrate solution (1 mg/ml 3,3′,5,5′-Tetramethylbenzidine[TMB], 0.006% H₂O₂ in 100 mM Na-acetate buffer, pH 6 at RT), the HRP-reaction was stopped by the addition of 50 μl 1 M H₂SO₄ and the absorption at the wavelength of 450 nm was measured using the Infinite microtiter plate reader (TECAN, Maennedorf, Switzerland). Between each incubation step and in advance of the detection, the plates were washed twice times with PBST and twice with PBS.

complement protein C1q = target: T4, complement protein C1q (UniProt P02745 23-245; P02746 28-253; P02747 29-245); test: ELISA, antibody immobilized, C1q added, n=2; concentration not shown
T4 construct: also called C1q Complement protein

[4] = target: T2, Recombinant human TNFR1-Fc fusion …; test: ELISA under equilibrium conditions, TNFR1-Fc coated; ELISA under equilibrium conditions
Description: as §1

human Fcγ receptor Ia = target: T5, human Fcγ receptor Ia (human, UniProt P12314 16-288, limits assumed); test: ELISA, antibody immobilized, human FcγRI added, n=2; concentration not shown
T5 construct: also called human FcγRI; FcγRI

human Fcγ receptor IIIa = target: T6, human Fcγ receptor IIIa (human, UniProt P08637 17-208, limits assumed); test: ELISA, antibody immobilized, human FcγRIII added, n=2; concentration not shown
T6 construct: also called human FcγRIII; FcγRIII

human Fcγ receptor IIb = target: T3, human Fcγ receptor IIb; test: ELISA, antibody immobilized, human FcγRIIb added, n=2; concentration not shown
[5] = target: T2, Recombinant human TNFR1-Fc fusion …; test: QCM at 37 C, TNFR1-Fc immobilized at ~94 ΔHz, 1:1 binding algorithm; quartz crystal microbalance, TNFR1 immobilized at ~94 ΔHz
Description: Real-time binding dynamics in protein-protein interactions were determined by quartz crystal microbalance measurements (Cell-200 C-Fast, Attana, Stockholm, Sweden). One of the binding partners (TNFR1-Fc) was chemically immobilized on a LNB Carboxyl Sensor Chip (3623-3103, Attana, Stockholm, Sweden) according to the manufacturer's protocol at a moderate density of ˜94 ΔHz. Binding experiments were performed with samples (analyte) diluted in PBST (PBS, 0.1% Tween 20) between 128 nM and 4 nM (1:2 dilution steps) at pH 7.4 with a flow rate of 25 μl/min at 37° C. The chip was regenerated with 25 μl 20 mM glycine, pH 2.0. Every third measurement, an injection of running buffer was measured which was subtracted from the binding curve prior to data analysis. Data were collected using the software provided by Attana and analyzed by Attaché Office Evaluation software (Attana, Stockholm, Sweden) and TraceDrawe (ridgview instruments, Vange, Sweden).

T5 sequence (P12314 16-288 limits assumed): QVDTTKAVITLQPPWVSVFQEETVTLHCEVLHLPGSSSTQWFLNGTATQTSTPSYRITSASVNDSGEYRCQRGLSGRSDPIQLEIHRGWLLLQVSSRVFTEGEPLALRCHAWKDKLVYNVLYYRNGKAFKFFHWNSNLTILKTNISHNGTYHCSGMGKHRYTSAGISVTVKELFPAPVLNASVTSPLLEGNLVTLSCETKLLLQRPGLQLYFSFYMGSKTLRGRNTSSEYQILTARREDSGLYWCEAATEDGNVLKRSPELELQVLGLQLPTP
T4 sequence (P02745 23-245 limits assumed, chain 1 of 3): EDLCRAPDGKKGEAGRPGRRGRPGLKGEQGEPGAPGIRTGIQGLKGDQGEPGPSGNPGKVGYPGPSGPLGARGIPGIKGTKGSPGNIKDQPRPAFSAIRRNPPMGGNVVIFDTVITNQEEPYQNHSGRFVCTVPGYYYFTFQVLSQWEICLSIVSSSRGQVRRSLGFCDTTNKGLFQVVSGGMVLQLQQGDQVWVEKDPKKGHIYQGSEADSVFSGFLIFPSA
T4 sequence (P02746 28-253 limits assumed, chain 2 of 3): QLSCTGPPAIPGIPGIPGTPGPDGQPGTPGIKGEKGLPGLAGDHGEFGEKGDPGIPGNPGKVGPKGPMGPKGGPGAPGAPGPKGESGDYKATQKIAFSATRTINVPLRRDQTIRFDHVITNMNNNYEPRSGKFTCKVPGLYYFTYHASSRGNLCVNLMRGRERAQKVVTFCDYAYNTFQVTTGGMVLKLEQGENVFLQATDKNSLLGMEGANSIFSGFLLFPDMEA
T4 sequence (P02747 29-245 limits assumed, chain 3 of 3): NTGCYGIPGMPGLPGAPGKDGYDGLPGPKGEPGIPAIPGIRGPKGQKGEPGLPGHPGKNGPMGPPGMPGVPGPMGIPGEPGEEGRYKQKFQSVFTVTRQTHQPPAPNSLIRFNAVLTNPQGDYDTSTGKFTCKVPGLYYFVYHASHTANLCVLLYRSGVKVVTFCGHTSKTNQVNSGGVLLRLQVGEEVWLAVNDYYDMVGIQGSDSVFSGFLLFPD
T6 sequence (P08637 17-208 limits assumed): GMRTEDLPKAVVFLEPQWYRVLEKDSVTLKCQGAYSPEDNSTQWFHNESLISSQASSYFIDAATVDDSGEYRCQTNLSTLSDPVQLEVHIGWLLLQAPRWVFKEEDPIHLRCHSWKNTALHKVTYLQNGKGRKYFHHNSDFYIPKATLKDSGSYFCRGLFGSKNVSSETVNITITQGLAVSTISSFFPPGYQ

| Binder | IC50, Cell death induction [nM] (Kym-1 cells, TNF-induced) [1] | IC50, IL-6 [nM] (IL-6 release from HeLa cells, 0.1 nM TNF) [1] | IC50, IL-8 [nM] (IL-8 release from HT1080 cells, 0.1 nM TNF) [1] | fold more potent inhibition compared to ATROSAB, IL-6 release assay [2] | fold more potent inhibition compared to ATROSAB, IL-8 release assay [2] | fold more potent inhibition compared to ATROSAB, cell death induction assay [2] | fold reduction in binding activity compared to ATROSAB [3] | fold reduction in binding activity compared to Fab 13.7 [3] | binding result (complement protein C1q) | EC50 [4] | binding result (human Fcγ receptor Ia) | binding result (human Fcγ receptor IIIa) | binding result (human Fcγ receptor IIb) | Kd [5] | koff [5] | kon [5] |
| --- | --- | --- | --- | --- | --- | --- | --- | --- | --- | --- | --- | --- | --- | --- | --- | --- |
| B1 | 9.5 nM | 37.1 nM | 12.7 nM | – | – | – | – | – | – | – | – | – | – | – | – | – |
| B2 | 16.2 nM | 54.5 nM | 24.2 nM | 3 fold | 3.5 fold | 4 fold | 4 fold | 2 fold | no binding | 0.4 nM | no binding | no binding | no binding | 2.7 nM | 0.00098 s⁻¹ | 370000 M⁻¹ s⁻¹ |
